pKd: −log10 of the molar value.
Tests used:
Experiment in all cases: SPR (Biacore T200), TYRP1 ECD-Fc captured by anti-PGLALA antibody, 1:1 Langmuir fit
[1] = target: Human TYRP1 extracellular domain (ECD), monomeric fusion to human Fc domain with knob-into-hole and PG LALA modifications and C-terminal Avi-tag (human) [IgG part: P01857]
[2] = target: Cynomolgus TYRP1 extracellular domain (ECD), monomeric fusion to human Fc domain with knob-into-hole and PG LALA modifications and C-terminal Avi-tag (cynomolgus monkey) [IgG part: P01857]
[3] = target: Mouse TYRP1 extracellular domain (ECD), monomeric fusion to human Fc domain with knob-into-hole and PG LALA modifications and C-terminal Avi-tag (mouse) [IgG part: P01857]

pKd [1]: 10.05
pKd [2]: 9.92
pKd [3]: 9.51
Substance: 親TA99抗体 (parental TYRP1 antibody TA99)
